Read-outs that look alike come from different tables or passages of the source.

Usually Kd stands for the constant that tells how readily two partners part at equilibrium. Higher therefore signals a looser complex. As usually defined, the koff is the first-order rate constant of dissociation. High values mean a short-lived complex, low ones a long-lived complex.

Common to all, as to assay: BLI
For orientation: Biolayer interferometry detects binding as a change in optical thickness at a sensor tip.

Assay [1] deals with T1, SARS-CoV-2 spike protein receptor binding domain, wild-type (Wuhan type) (SARS-CoV-2, UniProt P0DTC2).
In assay [2] the target is T1, SARS-CoV-2 spike protein receptor …. This is another data set of the same source.
Assay [3] has the same target. This is another data set of the same source.
For assay [4] the target is unchanged. This is another data set of the same source.

B1: ab8 nanobody, wild type (VHH)
VHH: EVQLVESGGGLVQPGGSLRLSCAASGFTFDDYAMSWVRQAPGKGLEWIGRMYNNGRTSYNPSLKSLVTISRDNSKNTLYLQMNSLRAEDTATYYCARDNLGYRPSENLYGMDVWGQGTTVTVSS
In assay [1], B1 returned an equilibrium dissociation constant (Kd) of 51.4 nM. Moreover, the koff in assay [2] came out at 0.0291 s⁻¹.

B2: ab8 E127W mutant nanobody (VHH)
VHH: EVQLVESGGGLVQPGGSLRLSCAASGFTFDDYAMSWVRQAPGKGLEWIGRMYNNGRTSYNPSLKSLVTISRDNSKNTLYLQMNSLRAEDTATYYCARDNLGYRPSWNLYGMDVWGQGTTVTVSS
For B2, in assay [1], the equilibrium dissociation constant (Kd) was 2.18 nM. The molecule further had a koff in assay [2] of 0.0148 s⁻¹.

B3: H11-H4 L106F mutant nanobody (VHH)
VHH: QVQLVESGGGLMQAGGSLRLSCAVSGRTFSTAAMGWFRQAPGKEREFVAAIRWSGGSAYYADSVKGRFTISRDKAKNTVYLQMNSLKYEDTAVYYCAQTHYVSYLFSDYATWPYDYWGQGTQVTVSS
With B3, the koff in assay [3] is 0.149 s⁻¹. The molecule also displayed a dissociation constant Kd in assay [4] of 164 nM.

B4: H11-H4 L106W mutant nanobody (VHH)
VHH: QVQLVESGGGLMQAGGSLRLSCAVSGRTFSTAAMGWFRQAPGKEREFVAAIRWSGGSAYYADSVKGRFTISRDKAKNTVYLQMNSLKYEDTAVYYCAQTHYVSYLWSDYATWPYDYWGQGTQVTVSS
Take B4: in assay [3], the koff came to 0.739 s⁻¹. Besides, binding in assay [4] was put at a Kd of 132 nM.

B5: H11-H4 H100Y mutant nanobody (VHH)
VHH: QVQLVESGGGLMQAGGSLRLSCAVSGRTFSTAAMGWFRQAPGKEREFVAAIRWSGGSAYYADSVKGRFTISRDKAKNTVYLQMNSLKYEDTAVYYCAQTYYVSYLLSDYATWPYDYWGQGTQVTVSS
B5: the koff in assay [3] came out at 0.145 s⁻¹. The Kd in assay [4] was 238 nM.

B6: H11-H4 nanobody, wild type (VHH)
VHH: QVQLVESGGGLMQAGGSLRLSCAVSGRTFSTAAMGWFRQAPGKEREFVAAIRWSGGSAYYADSVKGRFTISRDKAKNTVYLQMNSLKYEDTAVYYCAQTHYVSYLLSDYATWPYDYWGQGTQVTVSS
Consider B6, for which the koff in assay [3] turned out to be 0.0406 s⁻¹. For the same molecule, binding in assay [4] was characterised by a dissociation constant (Kd) of 63.6 nM.

B7: H11-H4 V102Y mutant nanobody (VHH)
VHH: QVQLVESGGGLMQAGGSLRLSCAVSGRTFSTAAMGWFRQAPGKEREFVAAIRWSGGSAYYADSVKGRFTISRDKAKNTVYLQMNSLKYEDTAVYYCAQTHYYSYLLSDYATWPYDYWGQGTQVTVSS
For B7, the koff in assay [3] stood at 0.543 s⁻¹. This molecule returned a Kd in assay [4] of 180 nM.
